“And” between values parts separate entries of the source, which are not always exact repeats. Identical values can stand only once.
How the values were obtained:
[1] = target: T1, C1r protein (UniProt P00736 18-705); test: indirect ELISA, antigen coated at 1 µg/ml, Goat anti-Human IgG-HRP detection, OD 450 nm
T1 construct: also called Cir protein
T1 sequence (looked up): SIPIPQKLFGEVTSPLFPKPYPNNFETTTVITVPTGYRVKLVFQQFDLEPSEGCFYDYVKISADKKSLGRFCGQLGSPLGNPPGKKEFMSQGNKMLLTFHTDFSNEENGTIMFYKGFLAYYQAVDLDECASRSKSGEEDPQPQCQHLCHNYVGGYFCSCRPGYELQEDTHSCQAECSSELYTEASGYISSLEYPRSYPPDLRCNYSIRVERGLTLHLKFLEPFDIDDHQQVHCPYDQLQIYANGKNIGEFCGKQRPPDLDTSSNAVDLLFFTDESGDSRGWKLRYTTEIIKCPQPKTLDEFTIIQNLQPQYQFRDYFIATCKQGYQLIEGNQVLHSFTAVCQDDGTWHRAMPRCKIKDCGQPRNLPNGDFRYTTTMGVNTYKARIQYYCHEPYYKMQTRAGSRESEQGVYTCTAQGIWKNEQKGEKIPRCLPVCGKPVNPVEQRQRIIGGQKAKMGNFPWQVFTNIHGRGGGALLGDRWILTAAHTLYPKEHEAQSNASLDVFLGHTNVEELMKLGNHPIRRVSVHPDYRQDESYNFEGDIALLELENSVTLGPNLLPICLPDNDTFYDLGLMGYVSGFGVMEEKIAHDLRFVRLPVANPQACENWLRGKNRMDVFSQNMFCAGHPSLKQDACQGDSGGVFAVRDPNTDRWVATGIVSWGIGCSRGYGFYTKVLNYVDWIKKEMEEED
Protocol: In this example, the antigen-binding specificity of the C1s recombinant antibody was analyzed by an indirect ELISA method according to the principle of the specificity detection of the C1s recombinant antibody shown in FIG. 4. An analysis method included the following steps:
200 μL (1 μg/ml) of C1s antigen (single-stranded unactivated C1s protein, double-stranded activated C1s protein, or C1r protein) was added respectively to wells of a microtiter plate, and the microtiter plate was gently shaken to make the antigen cover a well bottom of the microtiter plate. Incubation was performed overnight at 4° C. After washing the plate 3 times with a warm PBS, 200 μL of a blocking solution (10 mM PBS, 1% BSA, 0.1% casein) was added to perform blocking. Incubation was next performed at 37° C. for 1 h. The plate was washed 5 times with PBS. 100 μL of the C1s recombinant antibody was added in each well (an initial concentration of a first well was 10 μg/mL, then diluted down to 7 wells according to a ratio of ¼ gradient to set up duplicate wells), incubation was performed at 37° C. for 1 h. The liquid in the microtiter plate was spin-dried, and the plate was washed with 200 μL of warm PBS 5 times. 100 μL of a diluted secondary antibody (Goat anti-Human IgG-HRP) was added to each well of the microtiter plate. […] An optical density (OD) was read at 450 nm on the microplate reader.

[2] = target: T2, MASP1 (UniProt P48740 20-699, limits assumed); test: cell-based or functional assay
T2 sequence (looked up): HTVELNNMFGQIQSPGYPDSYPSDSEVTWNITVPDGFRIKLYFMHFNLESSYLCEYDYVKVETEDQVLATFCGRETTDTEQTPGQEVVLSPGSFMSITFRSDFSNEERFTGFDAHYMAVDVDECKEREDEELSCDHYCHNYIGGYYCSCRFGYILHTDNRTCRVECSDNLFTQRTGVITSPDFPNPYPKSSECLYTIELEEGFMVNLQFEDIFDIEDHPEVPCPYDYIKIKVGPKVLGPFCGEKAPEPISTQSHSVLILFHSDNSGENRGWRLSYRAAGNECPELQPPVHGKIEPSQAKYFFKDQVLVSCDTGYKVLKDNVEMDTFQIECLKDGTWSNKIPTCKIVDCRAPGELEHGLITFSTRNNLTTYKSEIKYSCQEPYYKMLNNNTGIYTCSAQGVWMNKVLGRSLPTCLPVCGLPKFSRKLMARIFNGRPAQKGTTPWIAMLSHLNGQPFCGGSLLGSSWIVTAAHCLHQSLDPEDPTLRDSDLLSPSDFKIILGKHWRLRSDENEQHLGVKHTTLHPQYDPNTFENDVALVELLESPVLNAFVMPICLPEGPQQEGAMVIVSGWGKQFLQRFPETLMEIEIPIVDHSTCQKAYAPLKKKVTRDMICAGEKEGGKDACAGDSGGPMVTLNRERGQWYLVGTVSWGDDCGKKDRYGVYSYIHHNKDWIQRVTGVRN

[3] = target: MASP2 (UniProt O00187 16-686, limits assumed); test: cell-based or functional assay
[4] = target: T3, double-stranded C1r (UniProt P00736 18-705); test: cell-based or functional assay
T3 sequence (looked up): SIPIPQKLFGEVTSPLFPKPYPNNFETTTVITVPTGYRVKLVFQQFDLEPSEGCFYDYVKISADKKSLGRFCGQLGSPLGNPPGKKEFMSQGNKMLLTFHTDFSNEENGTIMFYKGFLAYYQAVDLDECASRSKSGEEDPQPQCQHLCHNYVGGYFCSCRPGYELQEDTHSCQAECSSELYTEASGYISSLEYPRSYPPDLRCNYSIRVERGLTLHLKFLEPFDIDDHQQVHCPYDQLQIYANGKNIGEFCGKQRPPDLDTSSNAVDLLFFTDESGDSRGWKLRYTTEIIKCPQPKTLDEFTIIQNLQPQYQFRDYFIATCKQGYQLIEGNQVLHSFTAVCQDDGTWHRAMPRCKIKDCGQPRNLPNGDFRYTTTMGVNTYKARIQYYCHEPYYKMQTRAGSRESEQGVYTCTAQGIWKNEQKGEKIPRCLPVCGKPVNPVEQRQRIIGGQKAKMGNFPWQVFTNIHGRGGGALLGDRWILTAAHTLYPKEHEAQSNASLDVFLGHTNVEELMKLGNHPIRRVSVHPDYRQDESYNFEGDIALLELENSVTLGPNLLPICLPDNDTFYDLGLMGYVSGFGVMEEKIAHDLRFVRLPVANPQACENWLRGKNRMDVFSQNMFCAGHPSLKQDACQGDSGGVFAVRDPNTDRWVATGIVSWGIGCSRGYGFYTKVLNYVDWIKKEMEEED

Sequence of MASP2 (O00187 16-686 limits assumed): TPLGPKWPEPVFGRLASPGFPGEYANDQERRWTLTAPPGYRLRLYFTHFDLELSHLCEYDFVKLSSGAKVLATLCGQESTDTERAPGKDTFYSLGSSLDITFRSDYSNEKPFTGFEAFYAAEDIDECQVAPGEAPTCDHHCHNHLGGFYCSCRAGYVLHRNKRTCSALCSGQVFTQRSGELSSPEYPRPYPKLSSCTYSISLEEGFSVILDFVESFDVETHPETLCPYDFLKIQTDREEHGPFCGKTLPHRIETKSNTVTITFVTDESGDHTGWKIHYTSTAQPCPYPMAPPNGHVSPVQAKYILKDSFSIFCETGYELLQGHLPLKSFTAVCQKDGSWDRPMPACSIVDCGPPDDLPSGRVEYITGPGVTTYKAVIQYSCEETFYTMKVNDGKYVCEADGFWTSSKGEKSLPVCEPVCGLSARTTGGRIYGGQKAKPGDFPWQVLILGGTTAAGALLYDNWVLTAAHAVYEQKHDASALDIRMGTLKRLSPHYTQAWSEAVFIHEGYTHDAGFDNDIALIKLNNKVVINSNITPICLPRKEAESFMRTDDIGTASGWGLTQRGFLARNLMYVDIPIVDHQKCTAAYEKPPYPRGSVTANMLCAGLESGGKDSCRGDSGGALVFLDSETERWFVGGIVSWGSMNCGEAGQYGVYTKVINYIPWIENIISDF

binding result [1]: no binding
Cross reaction rate (%) [2]: 0.04%
Measured concentration [2]: 1.82 pmol/min/µg and 2 µg/mL
Cross reaction rate (%) [3]: 0.04%
Measured concentration [3]: 1.64 pmol/min/µg and 1.8 µg/mL
Cross reaction rate (%) [4]: 0.15%
Measured concentration [4]: 0.91 pmol/min/µg and 1 µg/mL
B1: C1s recombinant antibody (antibody, human IgG4 S228P, kappa, V domains shown)
VH: EVQLVESGGGLVKPGGSLRLSCAASGFTFSNYAMSWVRQAPGKGLEWVATISSGGSHTYYLDSVKGRFTISRDNSKNTLYLQMNSLRAEDTALYYCARLFTGYAMDYWGQGTLVTVSS
VL: QIVLTQSPATLSLSPGERATMSCTASSSVSSSYLHWYQQKPGKAPKLWIYSTSNLASGVPSRFSGSGSGTDYTLTISSLQPEDFATYYCHQYYRLPPITFGQGTKLEIKR
notes: The summary and claim 1 call the same entries variable regions; Expressed in HEK293T; also called C1s-specific recombinant antibody; recombinant anti-C1s antibody
